From patent publication US20070253958A1 (Bristol-Myers Squibb, published 2007)

T1: CD20 (human, UniProt P11836)
T1 construct: full length, on cells; also called CD20 on cells; Raji cells expressing CD20
T1 sequence (membrane protein on cells, looked up): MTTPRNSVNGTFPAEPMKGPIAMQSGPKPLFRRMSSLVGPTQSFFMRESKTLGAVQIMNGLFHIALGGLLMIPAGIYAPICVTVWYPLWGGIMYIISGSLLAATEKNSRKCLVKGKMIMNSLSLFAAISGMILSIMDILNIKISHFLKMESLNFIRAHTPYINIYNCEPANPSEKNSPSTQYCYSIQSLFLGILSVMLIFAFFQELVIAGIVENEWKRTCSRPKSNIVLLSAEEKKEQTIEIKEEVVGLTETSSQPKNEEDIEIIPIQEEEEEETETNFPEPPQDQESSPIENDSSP

T2: FcγRIIa-R131 (CD32, arginine at position 131), on cells (human, UniProt P12318 34-317)
T2 construct: whole, on cells; A database entry may carry H at that site, so the arginine must be set by hand; also called FcγRIIa-R131 allotype; IIA1.6 FcγRIIa-R131 transfectants
T2 sequence (looked up): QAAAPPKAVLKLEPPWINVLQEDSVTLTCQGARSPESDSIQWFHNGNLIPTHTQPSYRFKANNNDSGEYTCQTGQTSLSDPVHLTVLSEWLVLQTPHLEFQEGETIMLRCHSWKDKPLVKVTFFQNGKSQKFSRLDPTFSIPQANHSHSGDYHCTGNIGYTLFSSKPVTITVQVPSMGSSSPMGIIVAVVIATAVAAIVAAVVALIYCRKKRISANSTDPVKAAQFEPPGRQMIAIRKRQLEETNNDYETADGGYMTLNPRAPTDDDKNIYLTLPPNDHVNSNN


Assays:
[1] = target: T3, FcγRI (CD64), on cells (UniProt P12314 16-374, limits assumed); assay: cell-based or functional assay
T3 construct: whole, on cells

[2] = target: T1, CD20; assay: flow cytometry on CD20-expressing cells, mean fluorescence intensity; concentration not given
[3] = target: T3, FcγRI (CD64), on cells; assay: flow cytometry on CD64-expressing cells, mean fluorescence intensity; concentration not given
[4] = target: T4, FcγRIIIa (CD16), on cells (UniProt P08637 17-254, limits assumed); assay: flow cytometry on CD16A-expressing cells, mean fluorescence intensity; concentration not given
T4 construct: whole, on cells; also called CD16A

[5] = target: T5, FcαR (CD89), on transfected IIA1.6 cells (UniProt P24071 22-287, limits assumed); assay: flow cytometry on CD89-transfected cells, mean fluorescence intensity; concentration not given
T5 construct: whole, on cells; also called Fcα receptor; FcαRI

[6] = target: T2, FcγRIIa-R131 (CD32, arginine at …); assay: flow cytometry on transfected cells, mean fluorescence intensity; antibody concentration not given

T3 sequence (P12314 16-374 limits assumed): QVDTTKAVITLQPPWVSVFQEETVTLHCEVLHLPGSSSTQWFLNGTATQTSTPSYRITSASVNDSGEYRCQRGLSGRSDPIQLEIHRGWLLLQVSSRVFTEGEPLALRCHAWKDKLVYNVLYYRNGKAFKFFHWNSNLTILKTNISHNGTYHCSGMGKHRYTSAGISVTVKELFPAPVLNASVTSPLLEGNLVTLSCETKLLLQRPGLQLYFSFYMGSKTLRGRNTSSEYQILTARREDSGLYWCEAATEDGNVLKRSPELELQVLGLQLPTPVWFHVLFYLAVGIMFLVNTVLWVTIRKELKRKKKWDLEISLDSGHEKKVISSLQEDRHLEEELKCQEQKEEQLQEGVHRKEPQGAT
T5 sequence (P24071 22-287 limits assumed): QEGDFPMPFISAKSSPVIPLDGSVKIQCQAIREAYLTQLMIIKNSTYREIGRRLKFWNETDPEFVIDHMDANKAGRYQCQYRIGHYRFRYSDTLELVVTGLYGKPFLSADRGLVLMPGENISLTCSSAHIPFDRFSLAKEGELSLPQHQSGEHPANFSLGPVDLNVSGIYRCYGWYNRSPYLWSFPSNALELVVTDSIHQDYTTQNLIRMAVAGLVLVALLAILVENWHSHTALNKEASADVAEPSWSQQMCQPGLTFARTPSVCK
T4 sequence (P08637 17-254 limits assumed): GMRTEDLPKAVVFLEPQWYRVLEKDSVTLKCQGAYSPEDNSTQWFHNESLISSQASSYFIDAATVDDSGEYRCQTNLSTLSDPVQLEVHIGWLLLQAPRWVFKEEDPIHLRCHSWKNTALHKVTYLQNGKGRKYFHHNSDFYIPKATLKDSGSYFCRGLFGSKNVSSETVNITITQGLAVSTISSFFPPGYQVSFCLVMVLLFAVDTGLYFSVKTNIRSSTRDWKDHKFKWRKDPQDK

reduction of FcγRI membrane expression [1] [%] | binding result [2] | binding result [3] | binding result [4] | binding result [5] | binding result [6] | Molecule
60 | – | – | – | – | – | humanized CD64 mAb H22 (antibody)
– | no binding | no binding | no binding | no binding | binds | human monoclonal antibody MDE-8 (whole IgG) (antibody, V domains shown, Hybridoma-derived fully human IgG, kappa from HuMab HCo7 mice; a human IgG1 mAb served as its isotype control; also called HuMAb MDE-8; MDE-8 IgG) VH: QVHLVESGGGVVQPGRSLRLSCAASGFTFSSYGMHWVRQAPGKGLEWVAVIWYDGSNYYYTDSVKGRFTISRDNSKNTLYLQMNSLRAEDTAVYYCARDLGAAASDYWGQGTLVTVSS VL: AIQLTQSPSSLSASVGDRVTITCRASQGINSALAWYQQKPGKAPKLLIYDASSLESGVPSRFSGSGSGTDFTLTISSLQPEDFATYYCQQFNSYPHTFGQGTKLEIK
